B1: Segment polarity protein dishevelled homolog DVL-3, residues 2 to 81; numbered along this chain, Q92997 (parent)
chain: GETKIIYHLDGQETPYLVKLPLPAERVTLADFKGVLQRPSYKFFFKSMDDDFGVVKEEISDDNAKLPCFNGRVVSWLVSA

Variants of: B1
Experiment: abundance fitness (aPCA) (normalised: wild type 0, dead -1); higher = more abundant; growth selection in yeast, the domain comes from the species named
Details: Homo sapiens

Abundance fitness, by site and new letter:
K56: S -0.52; Y 0.592; W 0.282; T 0.162; R 0.041; P -0.496; Q -0.285; V 0.102
G71: Q -0.763; N -0.351; A -0.782; R -0.895; C -0.957; M -1.4; Y -0.64; L -0.538; D -0.482; F -0.725; W -0.524; V -0.888; T -0.919; I -0.249; H -0.281; S -0.512
K65: E -0.821; S -0.195; M -0.264; Y 0.093; N -0.139; P -0.135; C -0.183; L -0.005; I 0.263; G -0.47; R -0.032; H 0.091; Q 0.127; V 0.072; D -0.914; F -0.284
V74: C -0.658; H -0.249; R -0.446; M -0.198; L -0.427; E 0.195; F -0.066; A -0.585; P -0.981; W -0.243; G -0.716; D -0.593; N -0.511; K -0.953; Q -0.777; Y 0.236
V73: K -1.01; S -0.618; N -0.569; F -0.684; H -0.573; G -0.681; A -0.511; R -0.592; Q -0.477; W -0.589; Y -0.909; C -0.347; E -0.786; L -0.56; I 0.147; D -0.501; M -0.767
C68: L 0.061; W -0.793; M -0.22; P -0.759; T 0.103; I -0.049; S 0.081; R -0.875; E -0.645; H 0.143; N -0.117; G -0.699; Q -0.189; F -0.112; A -0.003; D -0.624
D61: V -0.695; W -0.679; A -0.578; Y -0.666; K -0.984; Q -0.082; C -0.407; L -0.763; T -0.985; H -0.695; E -0.257; F -0.52; G -0.791; M -0.335; N -0.33; P -0.566; I -0.384; S -0.594
N63: L -0.615; T -0.119; E 0.009; C -0.157; S -0.104; G -0.175; Q -0.113; I -0.766; A -0.184; F -0.661; Y -0.33; K -0.175; H -0.093; V -0.59; R -0.238
F69: P -0.918; A -0.613; T -0.352; L -0.214; G -0.605; Y 0.061; M -0.201; K -0.146; Q -0.423; N -0.361; S -0.163; E -0.108; C -0.148; W -0.191; R -0.272; V -0.078; H 0.001; D -0.352
E57: P -0.475; Y -0.222; S -0.137; V 0.254; M 0.292; L 0.136; N -0.276; W -0.526; A -0.121; Q 0.256; C -0.09; R 0.44; T 0.441; G -0.623; D -0.904; H -0.109; K 0.502
W76: I -1.4; P -0.625; M -0.678; H -1.2; L -0.842; G -0.648; F -0.482; C -0.737; N -0.661; K -0.709; E -0.891
L66: I -0.461; R -0.706; P -0.588; F -0.461; V -0.864; A -0.822; C -0.923; H -0.475; N -0.825; E -0.493; Y -0.508; D -1.44; T -0.772; S -0.747; G -0.789; M -0.664; K -0.644
P67: L -0.94; C -0.948; R -0.544; V -0.728; A -0.841; M -0.603; F -0.657; Q -0.676; G -0.659; S -0.646; K -1.02; D -0.623; E -0.432; I -1.04; Y -0.602; H -0.874; W -1.01
S60: M -0.199; R -0.273; T -0.005; I -0.325; P -0.922; A -0.152; K 0.032; F -0.189; D -0.32; E -0.269; N -0.111; H 0.137; C 0.1; G -0.572; L -0.502; W -0.115
E58: T -0.456; K -0.652; Y -0.801; R -0.676; S -0.62; H -0.227; V -0.561; P -0.95; Q -0.513; M -0.476; A -0.647; N -0.536; D -0.942; G -0.733; L -0.492
D62: V -0.674; M -0.441; Q -0.603; T -0.906; L -0.563; F -0.536; I -0.744; R -0.709; Y -0.604; S -0.748; C -1.05; P -0.575; N -0.307; A -0.875; G -0.818; W -0.929
A64: G -0.647; F -0.786; D -0.342; Y -0.894; L -0.904; M -0.316; I -0.414; W -0.672; R -0.359; P -0.663; N -0.523; Q -0.001; S -0.376; C -0.346; E -0.27; V -0.506
I59: D -1.21; N -0.736; A -0.419; M -0.474; T -0.811; L -0.64; V -0.395; R -0.746; K -0.675; F -0.592; H -0.628; W -0.724; C -0.593; Y -0.655; E -0.677; P -0.777; Q -1.11; G -0.696; S -0.704
R72: K 0.102; S 0.149; H 0.183; M 0.2; D -0.272; W 0.139; Q 0.243; T 0.318; C 0.222; N 0.029; P -1.04; G -0.416; L 0.216; F 0.219; I 0.269; A 0.163
N70: C -0.467; Y -0.915; K 0.002; R -0.249; T -0.466; H -0.165; V -0.593; E -0.001; S -0.568; M -0.374; P -0.628; L -0.757; Q -0.341; F -0.449; A -0.602; D 0.009; W -0.634
S75: P -0.59; C 0.099; Y -0.669; W -0.603; F -0.793; T -0.519; K -0.967; V -0.161; R -0.606; I -0.459; L -0.463; G -0.221; H -0.6; D -0.723; M -0.726; E -0.782; N -0.899

From the Human Domainome abundance scans (Beltran et al. 2025)
